Experimental data taken from patent US20060269543A1 (Amgen, published 2006).

B1: full length human IgG1 antibody against human IFN-γ, filtered purified bulk (FPB) (antibody, V domains shown)
VH: EVQLVQSGAEVKKPGESLKISCKGSGYNFTSYWIGWVRQMPGKGLELMGIIYPGDSDTRYSPSFQGQVTISADKSISTAYLQWSSLKASDTAMYYCGSGSYFYFDLWGRGTLVTVSS
VL: EIVLTQSPGTLSLSPGERATLSCRASQSVSSSYLAWYQQKPGQAPRLLIYGASSRATGIPDRFSGSGSGTDFTLTISRLEPEDFAVYYCQRSGGSSFTFGPGTKVDIKR
modifications: N-glycan sites at amino acids 28 and 297 of SEQ ID NO:17 (VH and CH2); heterogeneously sialylated
B2: full length human IgG1 antibody against human IFN-γ, purified isoform Peak +1 (antibody, V domains shown)
VH: B1 VH
VL: B1 VL
modifications: N-glycan sites at amino acids 28 and 297 of SEQ ID NO:17 (VH and CH2); sialylation isoform Peak +1
B3: full length human IgG1 antibody against human IFN-γ, purified isoform Peak +2 (antibody, V domains shown)
VH: B1 VH
VL: B1 VL
modifications: N-glycan sites at amino acids 28 and 297 of SEQ ID NO:17 (VH and CH2); sialylation isoform Peak +2
B4: full length human IgG1 antibody against human IFN-γ, purified isoform Peak -1 (antibody, V domains shown)
VH: B1 VH
VL: B1 VL
modifications: N-glycan sites at amino acids 28 and 297 of SEQ ID NO:17 (VH and CH2); sialylation isoform Peak -1
B5: full length human IgG1 antibody against human IFN-γ, purified isoform Peak -2 (antibody, V domains shown)
VH: B1 VH
VL: B1 VL
modifications: N-glycan sites at amino acids 28 and 297 of SEQ ID NO:17 (VH and CH2); sialylation isoform Peak -2
B6: full length human IgG1 antibody against human IFN-γ, purified isoform Peak 0 (antibody, V domains shown)
VH: B1 VH
VL: B1 VL
modifications: N-glycan sites at amino acids 28 and 297 of SEQ ID NO:17 (VH and CH2); sialylation isoform Peak 0

Biological target: T1, IFN-γ (human, UniProt P01579 24-166, limits assumed)
T1 sequence (looked up): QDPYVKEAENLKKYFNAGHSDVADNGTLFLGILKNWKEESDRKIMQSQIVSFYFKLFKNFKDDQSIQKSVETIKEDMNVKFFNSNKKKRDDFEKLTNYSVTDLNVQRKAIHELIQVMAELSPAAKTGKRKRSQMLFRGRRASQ
Test: cell-based or functional assay

In order of falling “IC50, A549 cell proliferation assay (ALAMARBLUE); sample stored 3 months at pH 5, 4° C.” value:
1. B5  0.0037 µg/mL
2. B4  0.003 µg/mL
3. B6  0.0024 µg/mL
4. B1  0.0023 µg/mL
5. B3  0.002 µg/mL
6. B2  0.0018 µg/mL

In order of rising “IC50, A549 cell proliferation assay (ALAMARBLUE); sample stored 3 months at pH 5, 37° C.” value:
1. B1  0.0027 µg/mL
2. B2  0.0028 µg/mL
3. B3  0.0032 µg/mL
4. B4  0.0033 µg/mL
5. B6  0.0033 µg/mL
6. B5  0.0038 µg/mL
